Test results reported in publication PMC7661507.
pKd: −log10 of the molar value. Each block holds one substance with its values, some of them ahead of it.

What was measured:
[1] = target: H1 V104C/G194C labeled with Alexa Fluor 488/594 (human); assay: single-molecule FRET; freely diffusing molecules; labeled protein titrated with the unlabeled partner (labeled ProTα with unlabeled H1, labeled H1 with unlabeled ProTα); TBS, 208 mM ionic strength
[2] = target: recombinant wild-type human histone H1.0 (unlabeled) (human); assay: single-molecule FRET; competition titration, freely diffusing molecules; constant 50 pM labeled ProTα and unlabeled H1 (1 to 50 nM), unlabeled ProTα varied; TBS, 165 mM ionic strength
Chain of recombinant wild-type human histone H1.0 (unlabeled) (human) (P07305 2-194): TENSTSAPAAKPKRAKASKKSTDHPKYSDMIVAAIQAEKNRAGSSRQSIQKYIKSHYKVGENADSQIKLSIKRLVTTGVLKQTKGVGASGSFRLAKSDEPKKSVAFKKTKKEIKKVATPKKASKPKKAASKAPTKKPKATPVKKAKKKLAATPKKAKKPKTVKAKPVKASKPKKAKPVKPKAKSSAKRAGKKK

[3] = target: recombinant wild-type human histone H1.0 (unlabeled) (human); assay: single-molecule FRET; competition titration, freely diffusing molecules; constant 50 pM labeled ProTα and unlabeled H1 (1 to 50 nM), unlabeled ProTα varied; TBS, 230 mM ionic strength
[4] = target: 1:1 complex of ProTα E56C/D110C Alexa488/594 and unlabeled H1 (human); assay: single-molecule FRET; rate coefficient of PH + H ⇌ PHH at 200 mM ionic strength; KD extrapolated from lower ionic strengths, kon^PHH assumed equal to kon^PPH
[5] = target: ProTα E56C/D110C labeled with Alexa Fluor 488/594 (human); assay: single-molecule FRET; freely diffusing molecules; 50 pM labeled ProTα titrated with unlabeled H1; TBS (10 mM Tris, 0.1 mM EDTA, KCl), 140 mM β-mercaptoethanol, 0.01% Tween 20; 165 mM ionic strength
[6] = target: ProTα E56C/D110C labeled with Alexa Fluor 488/594 (human); assay: single-molecule FRET; freely diffusing molecules; 50 pM labeled ProTα titrated with unlabeled H1; TBS, 180 mM ionic strength
[7] = target: 1:1 complex of ProTα E56C/D110C Alexa488/594 and unlabeled H1 (human); assay: single-molecule FRET; freely diffusing molecules; unlabeled H1 titrated to 50 pM labeled ProTα fully saturated with unlabeled H1 (PH + H ⇌ PHH); TBS, 43 mM ionic strength
[8] = target: 1:1 complex of ProTα E56C/D110C Alexa488/594 and unlabeled H1 (human); assay: single-molecule FRET; freely diffusing molecules; unlabeled H1 titrated to 50 pM labeled ProTα fully saturated with unlabeled H1 (PH + H ⇌ PHH); TBS, 13 mM ionic strength
[9] = target: 1:1 complex of ProTα E56C/D110C Alexa488/594 and unlabeled H1 (human); assay: single-molecule FRET; freely diffusing molecules; unlabeled H1 titrated to 50 pM labeled ProTα fully saturated with unlabeled H1 (PH + H ⇌ PHH); TBS, 23 mM ionic strength
[10] = target: ProTα E56C/D110C labeled with Alexa Fluor 488/594 (human); assay: single-molecule FRET; freely diffusing molecules; 50 pM labeled ProTα titrated with unlabeled H1; TBS, 340 mM ionic strength
[11] = target: 1:1 complex of ProTα E56C/D110C Alexa488/594 and unlabeled H1 (human); assay: single-molecule FRET; freely diffusing molecules; unlabeled H1 titrated to 50 pM labeled ProTα fully saturated with unlabeled H1 (PH + H ⇌ PHH); TBS, 18 mM ionic strength
[12] = target: Avi-ProTα E56C/D110C, biotinylated, labeled with Cy3B/LD650 (human); assay: single-molecule FRET; biotinylated Avi-ProTα immobilised on a PEG/neutravidin surface, unlabeled H1 in solution; two-state model of time traces; TBS in D2O, 230 mM ionic strength
[13] = target: Avi-ProTα E56C/D110C, biotinylated, labeled with Cy3B/LD650 (human); assay: single-molecule FRET; biotinylated Avi-ProTα immobilised on a PEG/neutravidin surface, unlabeled H1 in solution; two-state model of time traces; TBS in D2O, 275 mM ionic strength
[14] = target: ProTα S1C/D109C labeled with Alexa Fluor 488/594 (human); assay: single-molecule FRET; freely diffusing molecules; labeled protein titrated with the unlabeled partner (labeled ProTα with unlabeled H1, labeled H1 with unlabeled ProTα); TBS, 208 mM ionic strength
[15] = target: ProTα E56C/D110C labeled with Alexa Fluor 488/594 (human); assay: as above
[16] = target: ProTα E55C/D109C labeled with Alexa Fluor 488/594 (human); assay: as above
[17] = target: ProTα S1C/E55C labeled with Alexa Fluor 488/594 (human); assay: as above
[18] = target: ProTα E56C/D110C labeled with Cy3B/Abberior STAR635 (human); assay: as above
[19] = target: ProTα S1C/D110C labeled with Alexa Fluor 488/594 (human); assay: as above
[20] = target: ProTα E56C/D110C labeled with Atto 550/647N (human); assay: as above
[21] = target: Avi-ProTα E56C/D110C, biotinylated, labeled with Cy3B/LD650 (human); assay: single-molecule FRET; biotinylated Avi-ProTα immobilised on a PEG/neutravidin surface, unlabeled H1 in solution; two-state model of time traces; TBS in D2O, 230 mM ionic strength; remark: listed apart in the source
[22] = target: 1:1 complex of ProTα E56C/D110C Alexa488/594 and unlabeled H1 (human); assay: single-molecule FRET; freely diffusing molecules; unlabeled H1 titrated to 50 pM labeled ProTα fully saturated with unlabeled H1 (PH + H ⇌ PHH); TBS, 83 mM ionic strength
[23] = target: ProTα E56C/D110C labeled with Alexa Fluor 488/594 (human); assay: single-molecule FRET; freely diffusing molecules; 50 pM labeled ProTα titrated with unlabeled H1; TBS, 330 mM ionic strength
[24] = target: 1:1 complex of ProTα E56C/D110C Alexa488/594 and unlabeled H1 (human); assay: single-molecule FRET; freely diffusing molecules; unlabeled H1 titrated to 50 pM labeled ProTα fully saturated with unlabeled H1 (PH + H ⇌ PHH); TBS, 33 mM ionic strength
[25] = target: Avi-ProTα E56C/D110C, biotinylated, labeled with Cy3B/LD650 (human); assay: single-molecule FRET; biotinylated Avi-ProTα immobilised on a PEG/neutravidin surface, unlabeled H1 in solution; two-state model of time traces; TBS in D2O, 275 mM ionic strength; remark: listed apart in the source
[26] = target: 1:1 complex of ProTα E56C/D110C Alexa488/594 and unlabeled H1 (human); assay: single-molecule FRET; freely diffusing molecules; unlabeled H1 titrated to 50 pM labeled ProTα fully saturated with unlabeled H1 (PH + H ⇌ PHH); TBS, 58 mM ionic strength
[27] = target: ProTα E56C/D110C labeled with Alexa Fluor 488/594 (human); assay: stopped-flow fluorescence; 2 nM labeled ProTα mixed with different concentrations of H1; TBS, 165 mM ionic strength; fit with kex = kon cH + KD kon
[28] = target: ProTα E56C/D110C labeled with Alexa Fluor 488/594 (human); assay: single-molecule FRET; freely diffusing molecules; 50 pM labeled ProTα titrated with unlabeled H1; TBS, 240 mM ionic strength
[29] = target: ProTα E55C/D109C labeled with Alexa Fluor 488/594 (human); assay: single-molecule FRET; freely diffusing molecules; 50 pM labeled ProTα titrated with unlabeled H1; TBS, 200 mM ionic strength
[30] = target: Avi-ProTα E56C/D110C, biotinylated, labeled with Cy3B/LD650 (human); assay: as above
[31] = target: ProTα E56C/D110C labeled with Alexa Fluor 488/594 (human); assay: single-molecule FRET; freely diffusing molecules; 50 pM labeled ProTα titrated with unlabeled H1; TBS, 290 mM ionic strength
[32] = target: 1:1 complex of ProTα E56C/D110C Alexa488/594 and unlabeled H1 (human); assay: single-molecule FRET; freely diffusing molecules; unlabeled H1 titrated to 50 pM labeled ProTα fully saturated with unlabeled H1 (PH + H ⇌ PHH); TBS, 8 mM ionic strength

Chain of recombinant wild-type human histone H1.0 (unlabeled) (natural protein) (P07305 2-194): as above

pKd [1]: 8.46
pKd [2]: 11.24
pKd [3]: 8.19
Substance: ProTα (unlabeled & NMR) (natural protein)

koff [4]: 6000 s⁻¹
pKd [5]: 11.68
pKd [6]: 10.43
pKd [7]: 5.74
pKd [8]: 6.27
pKd [9]: 6.27
pKd [10]: 5.40
pKd [11]: 6.15
kon [12]: 1.4e+09 M⁻¹ s⁻¹
pKd [13]: 7.23
koff [13]: 59 s⁻¹
kon [13]: 3.1e+09 M⁻¹ s⁻¹
pKd [14]: 8.64
pKd [15]: 9.00
pKd [16]: 8.89
pKd [17]: 8.89
pKd [18]: 9.00
pKd [19]: 8.70
pKd [20]: 8.51
pKd [21]: 8.70
koff [21]: 2.8 s⁻¹
kon [21]: 3.1e+09 M⁻¹ s⁻¹
pKd [22]: 5.39
pKd [23]: 5.85
pKd [24]: 5.88
kon [25]: 1.01e+09 M⁻¹ s⁻¹
pKd [26]: 5.55
koff [27]: 0.006 s⁻¹
kon [27]: 3.5e+09 M⁻¹ s⁻¹
pKd [28]: 7.60
pKd [29]: 9.29
pKd [30]: 8.95
pKd [31]: 6.64
pKd [32]: 6.70
Substance: recombinant wild-type human histone H1.0 (unlabeled) (natural protein)
